Values of other authors in patent US10507248B2, “Hydrophobic core carrier compositions for delivery of therapeutic agents, methods of making and using the same” (PharmaIn Corporation, priority 2005, dated 2019).

Details: in vivo

B1: native EGF: native Epidermal Growth Factor with short biological half-life (protein, UniProt P01133 23-1207, looked up)
Pro-epidermal growth factor: PQHWSCPEGTLAGNGNSTCVGPAPFLIFSHGNSIFRIDTEGTNYEQLVVDAGVSVIMDFHYNEKRIYWVDLERQLLQRVFLNGSRQERVCNIEKNVSGMAINWINEEVIWSNQQEGIITVTDMKGNNSHILLSALKYPANVAVDPVERFIFWSSEVAGSLYRADLDGVGVKALLETSEKITAVSLDVLDKRLFWIQYNREGSNSLICSCDYDGGSVHISKHPTQHNLFAMSLFGDRIFYSTWKMKTIWIANKHTGKDMVRINLHSSFVPLGELKVVHPLAQPKAEDDTWEPEQKLCKLRKGNCSSTVCGQDLQSHLCMCAEGYALSRDRKYCEDVNECAFWNHGCTLGCKNTPGSYYCTCPVGFVLLPDGKRCHQLVSCPRNVSECSHDCVLTSEGPLCFCPEGSVLERDGKTCSGCSSPDNGGCSQLCVPLSPVSWECDCFPGYDLQLDEKSCAASGPQPFLLFANSQDIRHMHFDGTDYGTLLSQQMGMVYALDHDPVENKIYFAHTALKWIERANMDGSQRERLIEEGVDVPEGLAVDWIGRRFYWTDRGKSLIGRSDLNGKRSKIITKENISQPRGIAVHPMAKRLFWTDTGINPRIESSSLQGLGRLVIASSDLIWPSGITIDFLTDKLYWCDAKQSVIEMANLDGSKRRRLTQNDVGHPFAVAVFEDYVWFSDWAMPSVMRVNKRTGKDRVRLQGSMLKPSSLVVVHPLAKPGADPCLYQNGGCEHICKKRLGTAWCSCREGFMKASDGKTCLALDGHQLLAGGEVDLKNQVTPLDILSKTRVSEDNITESQHMLVAEIMVSDQDDCAPVGCSMYARCISEGEDATCQCLKGFAGDGKLCSDIDECEMGVPVCPPASSKCINTEGGYVCRCSEGYQGDGIHCLDIDECQLGEHSCGENASCTNTEGGYTCMCAGRLSEPGLICPDSTPPPHLREDDHHYSVRNSDSECPLSHDGYCLHDGVCMYIEALDKYACNCVVGYIGERCQYRDLKWWELRHAGHGQQQKVIVVAVCVVVLVMLLLLSLWGAHYYRTQKLLSKNPKNPYEESSRDVRSRRPADTEDGMSSCPQPWFVVIKEHQDLKNGGQPVAGEDGQAADGSMQPTSWRQEPQLCGMGTEQGCWIPVSSDKGSCPQVMERSFHMPSYGTQTLEGGVEKPHSLLSANPLWQQRALDPPHQMELTQ
modifications: Pro-epidermal growth factor
biological half-life: few minutes
